Reference: the supplement of paper PMC9732359
± gives the uncertainty stated by the source.

Assay: protein stability index of a GFP-peptide fusion (yeast GPS) (PSI 1-4); higher = more stable; sorted into four equal gates, so the index is relative within each strain
Outline: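 Yeast carrying a pooled library were grown to mid-log phase in leucine-free medium. Each library plasmid expresses Cherry and has a tiled 17-residue yeast protein peptide fused downstream of GFP. Cells were sorted into four equal gates by GFP/Cherry ratio, and plasmids from each gate were PCR-amplified, Illumina-sequenced and assigned to strains by barcode. Summing, across gates, the read frequency times the gate number gave each peptide's protein stability index.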

| Sequence | protein stability index (doa10∆) | protein stability index (pdr5∆) | protein stability index (san1∆) | protein stability index (ubr1∆) |
| --- | --- | --- | --- | --- |
| NKDMIKNLVKVLESRVN [CSN12] | 2.32 ± 0.23 | 2.63 ± 0.15 | 1.58 ± 0.18 | 1.75 ± 0.15 |
| SHLYKARLDGHDFLFNT [RPN14] | 3.37 ± 0.13 | 2.88 ± 0.076 | 3.13 ± 0.07 | 2.85 ± 0.047 |
| AALAPKIGPLGLSPKKV [RPL12A] | 2.66 ± 0.13 | 3.08 ± 0.097 | 3.02 ± 0.097 | 3.26 ± 0.07 |
| DRKKDKNVKHSGNIQLD [RPL12A] | 3.31 ± 0.12 | 3.46 ± 0.17 | 3.38 ± 0.073 | 3.18 ± 0.096 |
| FRKVKLRVDEVQGKNLL [RPS1B] | 3.25 ± 0.1 | 3.35 ± 0.15 |  | 3.28 ± 0.074 |
| SDAEEEEGEYKNAANTE [ISW2] | 3.06 ± 0.14 | 3.44 ± 0.14 | 3 ± 0.17 | 3.3 ± 0.093 |
| NFPVRQWSIEIVLLDDE [TAF14] | 1.57 ± 0.07 | 1.5 ± 0.055 | 2.37 ± 0.093 | 2.19 ± 0.059 |
| ARNLIEDEDDGESEKSS [RPC53] | 3.06 ± 0.12 | 3.68 ± 0.18 |  | 3.29 ± 0.11 |
| FICSIIQTVVISLLALP [YML031W/NDC1] | 1.43 ± 0.11 | 1.36 ± 0.076 | 1.34 ± 0.11 | 2.12 ± 0.11 |
| ASAKSVRSGVSKSAPSK [YAR002W/NUP60] | 2.96 ± 0.078 | 2.92 ± 0.1 | 2.96 ± 0.064 | 2.99 ± 0.056 |
| ECLQAYIFFGPIYYQKL [RET1] | 2.54 ± 0.077 | 2.65 ± 0.071 | 2.24 ± 0.1 | 2.72 ± 0.05 |
| SGDKEATAPLIQRKNKK [RPN8] | 3.39 ± 0.2 | 3.35 ± 0.14 | 3.25 ± 0.095 |  |
| PAELEGLLDLERVIVVT [FAS2] | 2.38 ± 0.1 | 2.11 ± 0.064 | 1.78 ± 0.17 | 1.77 ± 0.11 |
| DGKKHSVFYTILRDYGP [RPO31] | 2.86 ± 0.072 | 2.95 ± 0.067 | 3.19 ± 0.054 | 2.87 ± 0.06 |
| NKVGSTGSLMGGNSTQN [YGR119C/NUP57] | 3.02 ± 0.076 | 3.38 ± 0.098 | 3.19 ± 0.059 | 3.17 ± 0.053 |
| CNERVPLSVATELMNRS [SRP72] | 2.43 ± 0.033 | 2.52 ± 0.044 | 2.26 ± 0.052 | 2.19 ± 0.036 |
| DSFIFDGTAKEVGDEAD [MED4] | 3.22 ± 0.062 | 3.31 ± 0.057 | 3.38 ± 0.05 | 3.11 ± 0.051 |
| LYSGLIIDEIITQMRVN [RPC82] | 2.12 ± 0.078 | 2.36 ± 0.094 | 2.71 ± 0.2 | 1.58 ± 0.068 |
| RKRKCGHTNQLRPKKKL [RPL40A] | 2.84 ± 0.035 | 2.95 ± 0.032 | 3.017 ± 0.024 | 3.033 ± 0.026 |
| LQAFGESESTTNVYSKD [RPB3] | 2.08 ± 0.081 | 2.1 ± 0.06 | 1.68 ± 0.076 | 1.72 ± 0.041 |
| MVTSNVVLVSGEGERFT [SKP1] | 2.11 ± 0.14 | 2.56 ± 0.086 | 2.26 ± 0.12 | 1.73 ± 0.081 |
| SSTLGIDLEDIKEELTK [PCI8] | 2.93 ± 0.091 | 3.1 ± 0.094 | 3.17 ± 0.1 | 3.02 ± 0.1 |
| LQEKNSGNLPLNELSAK [RPN13] | 3.19 ± 0.072 | 3.2 ± 0.065 | 3.08 ± 0.038 | 3.17 ± 0.063 |
| NRTKSTTIKNIDILNRT [SMC4] | 2.15 ± 0.046 | 2.55 ± 0.043 | 2.38 ± 0.062 | 2.53 ± 0.041 |
| FIDSICKLFDKISFNLR [SRB8] | 2.23 ± 0.054 | 2.23 ± 0.046 | 1.96 ± 0.063 | 1.98 ± 0.053 |
